Laboratory results reported in publication PMC4841919 (Neurobiology of aging, 2016).

How the values were obtained:
[1] = target: striatal-enriched tyrosine phosphatase STEP61 (endogenous, rat brain) (rat (endogenous in Sprague-Dawley rat brain)); experiment: non-reducing SDS-PAGE and immunoblot
[2] = target: the molecule itself; experiment: non-reducing SDS-PAGE and immunoblot

striatal-enriched tyrosine phosphatase STEP61 (endogenous, rat brain) (enzyme), sequence (P35234 whole entry): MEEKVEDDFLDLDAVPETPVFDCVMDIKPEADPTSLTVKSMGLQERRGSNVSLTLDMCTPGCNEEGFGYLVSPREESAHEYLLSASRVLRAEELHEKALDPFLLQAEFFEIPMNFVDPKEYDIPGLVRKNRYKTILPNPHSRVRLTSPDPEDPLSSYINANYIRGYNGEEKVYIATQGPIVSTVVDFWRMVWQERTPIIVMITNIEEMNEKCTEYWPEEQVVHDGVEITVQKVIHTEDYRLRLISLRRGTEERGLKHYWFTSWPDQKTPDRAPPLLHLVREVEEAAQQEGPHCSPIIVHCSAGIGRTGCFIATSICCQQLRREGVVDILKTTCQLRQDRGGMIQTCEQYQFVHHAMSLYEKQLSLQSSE

Row | dimer band after N-acetyl cysteine, percent of untreated aged control, cortex [1] | fold increase of the dimer band in aged rats, cortex [1] [fold] | fold increase of the dimer band in aged rats, hippocampus [1] [fold] | stoichiometry N [1] | Molecule | stoichiometry N [2]
1 | 59.4 % of control | 6.2 | 5.9 | 2 | striatal-enriched tyrosine phosphatase STEP61 (endogenous, rat brain) (enzyme) | 
2 |  |  |  |  | V5- and myc-tagged STEP61 (wild type) (enzyme, UniProt P54830-1 1-541, looked up) MCCSERLLGLPQPVEMEAPDEAEGLPSKQKEMPPPPPPSPPSEPAQKLPPQGAGSHSLTVRSSLCLFAASQFLLACGVLWLSGHGHSWLQNTTDLISSSLTVLNHLGPVAWLGSGTWGIPSLLLVSLTVSLVIVTTLVWHLLKAPPEPPAPLPPEDRRQSVSRQPSFTYSEWMEEKVEDDFLDLDAVPETPVFDCVMDIKPETDPASLTVKSMGLQERRGSNVSLTLDMCTPGCNEEGFGYLVSPREESAHEYLLSASRVLRAEELHEKALDPFLLQAEFFEIPMNFVDPKEYDIPGLVRKNRYKTILPNPHSRVRLTSPDPEDPLSSYINANYIRGYSGEEKVYIATQGPIVSTVADFWRMVWQERTPIIVMITNIEEMNEKCTEYWPEEQVVHDGVEITVQKVIHTEDYRLRLISLRRGTEERSLKHYWFTSWPDQKTPDRAPPLLHLVREVEEAAQQEGPHCSPIIVHCSAGIGRTGCFIATSICCQQLRREGVVDILKTTCQLRQDRGGMIQTCEQYQFVHHAMSLYEKQLSLQSSE | ≥ 2
